Laboratory results reported in paper PMC8530329 (PLoS Pathogens, 2021).

Target: T1, SARS-CoV-2 S_(fm2P) (SARS-CoV-2, original (reference) …, 682RRAR685 → 682GSAG685 | 986KV987 → 986PP987)
T1 construct: also called ectodomain of the SARS-CoV-2 S protein; SARS-CoV-2 S protein
Assay: cryo-EM structure
Details: both partners purified

B1: RBD-chAb-25 (antibody, V domains shown)
VH: EVQLEESGGGLVKPGGSLKLSCAASGFTFSSYTMSWVRQSPEKRLEWVAEISSGGTYTNYPDTATGRFTISRDNAKNTLYLEMSSLRSEDTAMYYCANFGNYEEIAYWGQGTLVTVSA
VL: QIVLTQSPAIMSVSLGERVTMTCTASSSVSSSYLHWYQQKPGSSPKLWIYSTSNLASGVPARFSGSGSGTSYSLTISSMEAEDAATYYCHQYHRSPYTFGGGTKLEIK
notes: also called S-chAb-25 (in complex with S); source: Expi-293 cells, co-transfected, purified (protein G column)
With B1 the “stoichiometry N” value was 3 chAb (Fab) per S trimer.

B2: RBD-chAb-45 (antibody, V domains shown)
VH: EVQLQQSGPELVKPGASVKISCKTSGYTFTEYTIYWVKQSLGKSLEWIGGNNPNNDDTTYKQFFKGKATLTVDKSSSTAYMELRSLTSEDSAVYYCARDGYPYYYALDFWGQGTSVTVSS
VL: DIVMTQSQKFMSTSVGDRVSVTCKSSQNVGTNVAWYQQKPGQSPKALIYSASYRYSGVPDHFTGSGSGTDFTLTISNVQSADLAEYFCQQYNNYPWTFGGGTKLEIK
notes: also called S-chAb-45 (in complex with S); source: Expi-293 cells, co-transfected, purified (protein G column)
B2 was tested, and the “stoichiometry N” value was 3 chAb (Fab) per S trimer.
